Source: patent publication US20250019432A1

B1: S0023 (antibody, V domains shown)
VH: EVQLLESGGGLVQPGGSLRLSCAASGFTFSTFAMSWVRQAPGKGLEWVSTISGGGDSTYYADSVKGRFTISRDNSKNMMSLQMNSLRAVDTAVYYCVKGGGDEYFYYGMDVWGQGTTVTVSS
VL: DIQMTQSPSSLSASVGDRVTITCRASQGIRNDLGWYQQKPGKAPKRLIYSASSLQSGVPSRFSGSGSGTEFTLTISSLQPEDFATYYCLQHNSYPYTFGQGTPLDIKR
B2: S0057 (antibody, V domains shown)
VH: QGQLVQSGAEVKKPGASVKVSCKASGYTFNNYGISWVRQAPGQGLEWMGWISAYNGFTRSTQKFQGRVTLTTDTSTSTAHMELRSLRSDDTAAYYCARDGGDGFDPWGQGTLVTVSS
VL: EIVLTQSPATLSLSPGERATLSCRASQSVSSFLAWYQQKPGQAPRLLIFDASNRATGIPARFSGSGSGTDFTLTISSLEPEDFAVYYCQQRSNWITFGQGTRLEIKRA
B3: S0040 (antibody, V domains shown)
VH: QVQLVQSGAEVKKPGASVKVSCKASGYTFTSYDINWVRQATGQGLEWMGWMNPNSGNTGYAQNFQGRVTMTRNTSINTAYMELSSLRSEDTAVYYCTRGGPTLVRGVIIRDAFDFWGQGTMVTVSS
VL: EIVMTQSPATLSVSPGERATLSCRASQSVSNSFAWYQQKPGQAPRLLIYGAFTRATGIPARFSGSGSGTEFTLTISSLQSEDFAVYYCQQYKTWPLTFGGGTKVEIKR
B4: S0103 (antibody, V domains shown)
VH: QVQLVQSGAEVKKPGASVKVSCKASGYTFTSYDINWVRQATGQGLEWMGWMNPNSGNTGYAQNFQGRVTMTRDTSVNTAYMELSSLRSEDTAVYYCARGGPNLVRGVIIRDAFDFWGQGTMVTVSS
VL: EIVMTQSPATLSVSPGERATLSCRASQSVSNSFAWYQQKPGQAPRLLIYGAFTRATGIPARFSGSGSGIEFTLTISSLQSEDFAVYYCQQYKTWPLTFGGGTKVEIKR
B5: S0042 (antibody, V domains shown)
VH: QVQLVQSGTEVKKPGASVKVSCKVSGYTLSDLSIHWVRQAPGKGLEWMGGFEPEDGEIIYAQKFQGRVIMTEDTSTDTAYMKLSSLRSEDTAVYYCATDKRYFDWLLSGFDYWGQGTLVTVSS
VL: DIQLTQSPSFLSASVGDRVTITCRASQGISSYLAWYQQKPGKAPKLLIFAASTLQSGVPSRFSGSGSGTEFTLTISSLQPEDFATYYCQRLHSYPRTFGQGTKVEIKRA

Experiments:
human siglec12 (human) [1] = molecular target: human siglec12 (human) (UniProt Q96PQ1); assay: cell-based or functional assay
human siglec12 (human) [2] = molecular target: human siglec12 (human) (UniProt Q96PQ1); assay: FACS U937
[3] = molecular target: siglec6 with C-terminal FLAG tag on Expi 293 cells (UniProt O43699); assay: flow cytometry, transfected Expi 293, 500 nM
siglec6 with C-terminal FLAG tag on Expi 293 cells, sequence (O43699 27-453 limits assumed): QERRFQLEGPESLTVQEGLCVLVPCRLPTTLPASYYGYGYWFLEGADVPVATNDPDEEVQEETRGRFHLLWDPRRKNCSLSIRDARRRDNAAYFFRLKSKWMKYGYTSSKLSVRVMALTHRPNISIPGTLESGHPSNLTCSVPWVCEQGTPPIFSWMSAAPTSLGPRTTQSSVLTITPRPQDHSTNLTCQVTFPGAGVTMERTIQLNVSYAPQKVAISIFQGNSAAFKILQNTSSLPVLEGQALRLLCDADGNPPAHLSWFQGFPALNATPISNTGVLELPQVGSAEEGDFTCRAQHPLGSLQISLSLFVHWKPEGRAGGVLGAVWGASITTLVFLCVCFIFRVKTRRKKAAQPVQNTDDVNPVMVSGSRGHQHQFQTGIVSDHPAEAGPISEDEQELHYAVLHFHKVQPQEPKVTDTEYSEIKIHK

[4] = molecular target: siglec12 with C-terminal FLAG tag on Expi 293 cells (UniProt Q96PQ1); assay: flow cytometry, transfected Expi 293, 500 nM
siglec12 with C-terminal FLAG tag on Expi 293 cells, sequence (Q96PQ1 19-595): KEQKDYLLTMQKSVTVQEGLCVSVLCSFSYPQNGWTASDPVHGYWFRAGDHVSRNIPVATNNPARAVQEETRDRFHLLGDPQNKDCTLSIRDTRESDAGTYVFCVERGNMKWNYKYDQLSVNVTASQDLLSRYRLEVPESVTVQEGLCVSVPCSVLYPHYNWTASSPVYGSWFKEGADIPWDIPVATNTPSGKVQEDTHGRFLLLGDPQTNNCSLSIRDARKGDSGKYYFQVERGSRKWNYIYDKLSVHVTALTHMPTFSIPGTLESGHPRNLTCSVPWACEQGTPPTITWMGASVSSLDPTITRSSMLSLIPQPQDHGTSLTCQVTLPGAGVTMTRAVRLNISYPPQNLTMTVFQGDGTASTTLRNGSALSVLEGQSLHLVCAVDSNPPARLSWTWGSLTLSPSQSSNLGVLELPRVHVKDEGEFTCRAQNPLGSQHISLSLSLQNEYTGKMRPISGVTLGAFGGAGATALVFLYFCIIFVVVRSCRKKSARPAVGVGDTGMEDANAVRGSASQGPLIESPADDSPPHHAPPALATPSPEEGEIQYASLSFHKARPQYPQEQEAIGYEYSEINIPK

Binder	% Internalization at 2 hours, U937 cells (human siglec12 (human) [1]) [%]	Flow % Gated (human siglec12 (human) [2]) [%]	Flow Fluor MFI (human siglec12 (human) [2])	MFI [3]	MFI [4]	MFI of pH sensitive dye, Siglec12 complexes, 0 hours (human siglec12 (human) [1])	MFI of pH sensitive dye, Siglec12 complexes, 4 hours (human siglec12 (human) [1])	MFI of pH sensitive dye, Siglec12 complexes, 24 hours (human siglec12 (human) [1])	Siglec12 % surface expression, 0 min (human siglec12 (human) [1]) [%]	Siglec12 % surface expression, 15 min (human siglec12 (human) [1]) [%]	Siglec12 % surface expression, 30 min (human siglec12 (human) [1]) [%]	Siglec12 % surface expression, 45 min (human siglec12 (human) [1]) [%]	Siglec12 % surface expression, 60 min (human siglec12 (human) [1]) [%]	Siglec12 % surface expression, 90 min (human siglec12 (human) [1]) [%]	Siglec12 % surface expression, 120 min (human siglec12 (human) [1]) [%]
B1	32	3	93	29.3	484										
B2	58	79	368	29.8	912	20	24.7	26.5	100	96	84	73	65	47	40
B3		6	111												
B4		2	97												
B5	66	4	107	25.7	538										
